These binders were tested against Human B7-H3-His protein (human) (UniProt Q5ZPR3) (assay: BLI, Fortebio Octet R2, antibody on AMQ sensor, human B7-H3-His in solution).

Row | Kd [nM] | koff [s⁻¹] | kon [M⁻¹ s⁻¹] | Binder
1 | < 0.001 | < 1e-07 | 1.3e+06 | 16-B6-G3-E10 (antibody, human IgG1, kappa, V domains shown) VH: EVQLQQSGTELVRPGALVKLSCKTSGFNIKDCYMHWVKQRPEQGLEWIGWIDPENGNTIYDPKFQGKATITADTSSYTAYLQLSSLTSEDTAVYYCARSRARGYAMDYWGQGTSVTVTS VL: DIVMTQSPASLAVSLGQRATISCRASQSVSTSSYSYMHWYRQIPGQPPKLLIKYASNLESGVPARFSGSGSGTDFTLNIHPVEEEDTATYYCQHSWEIPRTFGGGTKLELKR
2 | 0.0522 | 7.52e-05 | 1.44e+06 | 34-H11-D9-F6 (antibody, human IgG1, kappa, V domains shown) VH: EVQLQQSGAELVKPRASVRLSCRASGYTFTSYWMHWVKQRPGQGLEWIGMIHPNSGSTNYNEKFKSKATLTVDKSSSTAYMQLSSLTSEDSAVYFCARERFGLLRYFDYWGQGTTLTVSS VL: DIVMTQSPSSMYASLGERVTITCKASQDINSFLSWFQQKPGKSPKTLLYRANRLMDGVPSRFSGSGSGQDFSLTISSREYEDMGIYYCLQYDEFPFTFGSGTKLELKR
3 | 0.0434 | 7.56e-05 | 1.74e+06 | 28-F8-C4-A8 (antibody, human IgG1, kappa, V domains shown) VH: EVQLQQSGAELVQPGASMKLSCKTSGYTFTTYDINWVRQRPEQGLEWIGWIFPGDGTTKYNEKFKGKATLTTDKSSSTAYMHLSRLTSEDSVVYFCARTPWFDYWGQGTTLTVSS VL: DIVLSQSPAIMSASPGEKVIMTCSASSSISYMYWYQQKPGTSPKRWIYDTSKLASGVPARFSVSGSGTSYSLTISSMEAEDAATYYCHQRSSYPTFGGGTKLELKR
4 | 0.0714 | 8.49e-05 | 1.19e+06 | 28-B1-E8-C11 (antibody, human IgG1, kappa, V domains shown) VH: EVKLVESGAVLVKPGASVKISCKASGYTLSDFNMDWVKQSQGKSLEWVGDINPNYDTITYNQKFRGKATLTVDRSSNTAYMELRSLTSEDSAVYYCARGELGRYFYVWGAGTTVTVSS VL: DIQLTQPPASLSASVGETVTITCRASENVYSYLAWYRQKQGRSPQLLVYNAKTLPEGVPSRFSGSGSGTQFSLKINSLQTEDLGDYYCQHHYGTPWTFGGGTKLEIKR
5 | 2.32 | 0.000408 | 176000 | 19-F1-E9-B11 (antibody, human IgG1, kappa, V domains shown) VH: EVQLQQSGPSLVKPSQTLSLTCSVTGGSITSFYWNWIRKFPGNKLEYMGYISSSGSTYYNPSLKSRISITRDTSKNQSYLQLNSVTAEDTATYYCARGGVHYGFGDYWGQGTSVTVSS VL: DIVMTQSAPSVPVTPGESVSISCRSSKSLLHSNGNTYLYWFLQRPGQSPQLLIYRMSNLASGVPDRFSGSGSGTAFTLRISRVEAEDVGVYYCMQHLEYPLTFGAGTKLELKR
6 | 0.0877 | 0.000142 | 1.62e+06 | 16-D10-E1-E1 (antibody, human IgG1, kappa, V domains shown) VH: EVQLQQSGPELVRPGVSVKISCKGSGYTFTDYAMHWVKQSHAKSLEWIGVINTYSGNTYYSQKFKGKATMTVDKSSSTAYMELARLTSEDSAIYYCARGAGYFPYWYFDVWGAGTTVTVSS VL: DIQMIQSPSYLAASPGETITINCRASKSISKYLAWYQEKPGKTNKLLIYSGSTLQSGIPSRFSGSGSGTDFTLTISSLEPEDFAMYYCQQHYEYPYTFGGGTKLEIKR

These binders were tested against Human B7-H3-His protein (human) (UniProt Q5ZPR3) (assay: SPR, Biacore 8K, antibody captured by anti-human IgG Fc on CM5, B7-H3 Human-His as analyte, 1:1 model).

Row | Kd [nM] | koff [s⁻¹] | kon [M⁻¹ s⁻¹] | Binder
7 | 6.53 | 8.2e-05 | 12600 | cAb1-z0-p7 (antibody, human IgG1, kappa, V domains shown) VH: EVQLVESGGGLVKPGGSLRLSCAASGFTFSSYGMSWVRQAPGKGLEWVSSISGSGSYTYYPDSLKGRFTISRDNAKNSLYLQMNSLRAEDTAVYYCARQQGYWYFDVWGQGTTVTVSS VL: DIVMTQTPLSLPVTPGEPASISCRASQSLASSYGKTYLSWYLQKPGQSPQLLIYGISNRFSGVPDRFSGSGSGTDFTLKISRVEAEDVGVYYCLHGTHQPLTFGQGTKLEIKR
8 | 3.51 | 7.21e-05 | 20500 | cAb1-z5-p7 (antibody, human IgG1, kappa, V domains shown) VH: EVQLVESGGGLVKPGGSLRLSCAASGFTFSSYGMSWVRQAPGKRLEWVASISGSGSYTYYPDSLKGRFTISRDNAKNSLYLQMNSLRAEDTAVYYCARQQGYWYFDVWGQGTTVTVSS VL: DVVMTQTPLSLPVTPGEPASISCRASQSLASSYGKTYLSWYLQKPGQSPQLLIYGISNRFSGVPDRFSGSGSGTDFTLKISRVEAEDVGVYYCLHGTHQPLTFGQGTKLEIKR
9 | 4.02 | 6.87e-05 | 17100 | cAb1-z3-p7 (antibody, human IgG1, kappa, V domains shown) VH: EVQLVESGGGLVKPGGSLRLSCAASGFTFSSYGMSWVRQAPGKRLEWVSSISGSGSYTYYPDSLKGRFTISRDNAKNSLYLQMNSLRAEDTAVYYCARQQGYWYFDVWGQGTTVTVSS VL: DVVMTQTPLSLPVTPGEPASISCRASQSLASSYGKTYLSWYLQKPGQSPQLLIYGISNRFSGVPDRFSGSGSGTDFTLKISRVEAEDVGVYYCLHGTHQPLTFGQGTKLEIKR
10 | 5.91 | 0.000846 | 143000 | 28-B1-E8-C11 (antibody, human IgG1, kappa, V domains shown) VH: EVKLVESGAVLVKPGASVKISCKASGYTLSDFNMDWVKQSQGKSLEWVGDINPNYDTITYNQKFRGKATLTVDRSSNTAYMELRSLTSEDSAVYYCARGELGRYFYVWGAGTTVTVSS VL: DIQLTQPPASLSASVGETVTITCRASENVYSYLAWYRQKQGRSPQLLVYNAKTLPEGVPSRFSGSGSGTQFSLKINSLQTEDLGDYYCQHHYGTPWTFGGGTKLEIKR
11 | 4.85 | 0.000802 | 165000 | cAb2-z1-p9 (antibody, human IgG1, kappa, V domains shown) VH: EVKLVESGAVLVKPGASVKISCKASGYTLSDFNMDWVKQSQGKSLEWVGDINPNYDTITYNQKFRGKATLTVDRSSNTAYMELRSLTSEDSAVYYCARGELGRYFYVWGAGTTVTVSS VL: DIQLTQPPSSLSASVGDRVTITCRASENVYSYLAWYQQKPGRSPQLLVYNAKTLPEGVPSRFSGSGSGTQFTLTISSLQPEDFADYYCSHHYGTPWTFGGGTKVEIKR
12 | 6.6 | 0.00122 | 184000 | cAb2-z5-p6 (antibody, human IgG1, kappa, V domains shown) VH: QVQLVESGAVVKKPGASVKVSCKASGYTLSDFNMDWVRQAPGKSLEWMGDINPNYDTITYNQKFRGRVTLTVDRSINTAYMELSRLRSDDTAVYYCARGELGRYFYVWGAGTMVTVSS VL: DIQLTQPPSSLSASVGDRVTITCRASENVYSYLAWYQQKPGRSPQLLVYNAKTLPEGVPSRFSGSGSGTQFTLTISSLQPEDFADYYCSHHYGTPWTFGGGTKVEIKR

Reference: patent publication EP4763862A1
